Results taken from PMC12251106, “An Organic Solvent-Tolerant α-L-Rhamnosidase from Dictyoglomus thermophilum and Its Application in Production of Icariside I from Icariin” (Molecules, 2025).

Substrate: C[C@@H]1O[C@@H](Oc2ccc([N+](=O)[O-])cc2)[C@H](O)[C@H](O)[C@H]1O
Test: purified protein
Assay type: biochemical, Dictyoglomus thermophilum
Details: 100 mM NaAc-HAc pH 6.0, 55 °C, 0.1-5 mM pNPR, 0.2 mg/mL enzyme, apparent parameters

B1: DthRha (Dictyoglomus thermophilum H-6-12) (protein)
chain: MKSSNIYSPFDLKCEFTTNPLGVDKKNPIFSWKLRHLEKNEKQTAYQVIVSSSLETINDNIGDVWDTGKVLSSEQVIKYEGKELEPCKVYFWKVRWWDSKDQESPFSVVNTFETGLMNEENWKAKWITKKEHKYEVYSPDGAPFGLNYTIAYAPMFRKSFSISKKIKRARVYIAGLGLYELYINGERIGDRVLDPGQTDYKKRVLYTVYDVSKNIRDGKNAIGVILGNGRYVKEYGYDFPKLIIQVLVEYEDDSIEWIVSDESWKTTYGPITLNSLYHGEIYDGRKEIKGWNLPDFDDSTWENAILAEPPGGKLYSEIYPPIRITKTIKPIKMWSPEPGTYVYDFGQNYTGWIKIKVRTNESGKEIRIRHAELTYEDGTLNYSTNRTALATDVYITKGEGYEEYEPRFTYHGFRYVEILGYPGVPTLEDIEGKVVHTAVESNGEFICSNELINKIHHNIIWGQLSNLMSIPTDCPQRDERMGWMGDAQLSAEEAIFNFDMIGFYRKYLNDIRDAQKENGSLSDVIPPYWSIYPGDPAWSTAYITIAWYLYQYYGDKYVLEEHYEGFKKYVEFLKKLAPDYIVSFYKYGDWCQPGTVRPKDNSGELTSTFYFYHDVITLSKIAKLLGKEADYKYYSELADKIKSAFNKKFLKEKAYASIPTELSEENVKALLEKYPEDIKDFLRQQFTILSSLGMFTSQTLNTLPLYLNLVPEDKVQDVLKTLLEDIIIRHDYHLDTGIVATRYIFDVLTSYGYDEVAYKIVNQKTYPSFGYMIEEGATTLWERWEKLTSTGMNSHNHIMFGSVDAWFYRVIAGVRVGEPGWNKIIFEPHPVGDLKYAKARLNTIKGEVEINWQKTENIFSMRISVPVNSEGEVHVPKLFERFVVKEGDNIIYEKKGDLEENEKYIVIRVGSGSYNFYMEKI
notes: 921 residues (2763 bp gene); theoretical 106 kDa, about 105 kDa on SDS-PAGE
- Km: 440 µM
- kcat: 7.99 s⁻¹
- kcat/Km: 18200 M⁻¹ s⁻¹
